Reference: US20200385427A1
Starred links: 1 amine or outer side, 2 acyl side, 3 side chain; linkers in the order of their positions; H or OH if unused. Non-standard residues stand in square brackets, D forms with d. No end group written: not given here. Trimesoyl = O=C(c1cc(C(=O)[*:2])cc(C(=O)[*:3])c1)[*:1]; F2Pmp = N[C@@H](Cc1ccc(C(F)(F)P(=O)(O)O)cc1)C(=O)O; Phe(4-F) = N[C@@H](Cc1ccc(F)cc1)C(=O)O; dPhe(4-F) = N[C@H](Cc1ccc(F)cc1)C(=O)O; 2Nal = N[C@@H](Cc1ccc2ccccc2c1)C(=O)O; Phg = N[C@H](C(=O)O)c1ccccc1; Pip = O=C(O)[C@@H]1CCCCN1; Nle = CCCC[C@H](N)C(=O)O; Dap = NC[C@H](N)C(=O)O; Sar = CNCC(=O)O

Key:
[1] = molecular target: ybbR-tagged PTP1B catalytic domain (amino acids 1-321) (UniProt P18031); assay: cell-based or functional assay
ybbR-tagged PTP1B catalytic domain (amino acids 1-321), sequence (P18031 other isoform, or with tags, fused parts or gaps limits assumed): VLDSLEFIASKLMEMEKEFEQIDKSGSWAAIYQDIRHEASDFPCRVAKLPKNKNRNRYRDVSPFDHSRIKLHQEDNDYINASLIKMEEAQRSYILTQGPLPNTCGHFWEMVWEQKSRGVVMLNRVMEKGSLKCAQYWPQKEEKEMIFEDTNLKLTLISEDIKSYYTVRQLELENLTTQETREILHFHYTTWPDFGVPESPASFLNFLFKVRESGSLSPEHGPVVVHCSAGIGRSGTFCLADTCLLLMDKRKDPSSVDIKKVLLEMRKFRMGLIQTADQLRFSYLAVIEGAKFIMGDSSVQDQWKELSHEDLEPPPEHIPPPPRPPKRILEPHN

[2] = molecular target: Pin1 (human) (UniProt Q13526); assay: fluorescence anisotropy, FITC-labeled peptide
[3] = molecular target: MBP-Pin1 (S16A/Y23A mutant Pin1 as a maltose-binding protein fusion at the N-terminus) (UniProt Q13526); assay: FA of TMR-labeled peptide released from the bead, 5 µM MBP-Pin1
[4] = molecular target: Pin1 (human) (UniProt Q13526); assay: cell-based or functional assay
[5] = molecular target: full-length human S16A/Y23A mutant Pin1 (human) (UniProt Q13526); assay: fluorescence anisotropy, FITC-labeled peptide

cyclo(IP[Phg][F2Pmp][Nle]RRRR[2Nal]FQ) [Monocyclic Inhibitor 3]
IC50 (inhibition of pNPP hydrolysis) [1]: 200 nM

AXXXXYQK (cyclo(D-Ala-Sar-D-pThr-Pip-Nal-Tyr-Gln)-Lys-NH2) [Pin1 inhibitor 5]
Kd [2]: 240 nM

B1: peptide 8 (Table 18) (peptide)
peptide: XHXTXXRAAXFXRRRRXK
modifications: not fully specified; bicyclo[Tm-(His-Phg-D-Thr-Pip-Nal-Arg-Ala-D-Ala)-Dap-(Phe-Nal-Arg-Arg-Arg-Arg-Dap)]-Lys
Kd [2]: 1000 nM
FA increase relative to the no-protein control [3]: > 50%

B2: peptide 22 (Table 18) (peptide)
peptide: Trimesoyl-P[Sar][dD][Pip][2Nal]RR[dF][Dap]F[2Nal]RRRR[Dap]K
modifications: linker (positions not given here) via Trimesoyl; not fully specified (C-terminus, bridges); printed as bicyclo[Tm-(Pro-Sar-D-Asp-Pip-Nal-Arg-Arg-D-Phe)-Dap-(Phe-Nal-Arg-Arg-Arg-Arg-Dap)]-Lys
fold increase of Pin1 inhibitory activity against the D-Ala parent [2]: 2 fold

B3: peptide 37 (Table 18) (peptide)
peptide: Trimesoyl-[dPhe(4-F)][Phe(4-F)][dT][Pip][2Nal]RA[dF][Dap]F[2Nal]RRRR[Dap]K
modifications: linker (positions not given here) via Trimesoyl; not fully specified (C-terminus, bridges); printed as bicyclo[Tm-(D-4-Fpa-Fpa-D-Thr-Pip-Nal-Arg-Ala-D-Phe)-Dap-(Phe-Nal-Arg-Arg-Arg-Arg-Dap)]-Lys
IC50 (HeLa cell growth, MTT assay) [4]: 1000 nM
IC50 (cis-trans isomerase activity toward Suc-Ala-Glu-Pro-Phe-pNA) [4]: 170 nM
PML protein level in HeLa cells (western blot), at 0.2 µM inhibitor [4]: 1.8 fold
PML protein level in HeLa cells (western blot), at ˜1 µM inhibitor [4]: 3.3 fold

B4: peptide 6 (Table 18) (peptide)
peptide: XXHEXXRAAXFXRRRRXK
modifications: not fully specified; bicyclo[Tm-(Phg-His-D-Glu-Pip-Nal-Arg-Ala-D-Ala)-Dap-(Phe-Nal-Arg-Arg-Arg-Arg-Dap)]-Lys
Kd [2]: 1000 nM
FA increase relative to the no-protein control [3]: > 50%

B5: Monocyclic Inhibitor 1 (peptide)
peptide: cyclo([dT][dN][dV][F2Pmp][dA]RRRR[2Nal]FQ)
SMILES: CC(C)[C@H]1NC(=O)[C@@H](CC(N)=O)NC(=O)[C@@H]([C@H](C)O)NC(=O)[C@H](CCC(N)=O)NC(=O)[C@H](Cc2ccccc2)NC(=O)[C@H](Cc2ccc3ccccc3c2)NC(=O)[C@H](CCCNC(=N)N)NC(=O)[C@H](CCCNC(=N)N)NC(=O)[C@H](CCCNC(=N)N)NC(=O)[C@H](CCCNC(=N)N)NC(=O)[C@@H](C)NC(=O)[C@H](Cc2ccc(C(F)(F)P(=O)(O)O)cc2)NC1=O
IC50 (inhibition of pNPP hydrolysis) [1]: 100 nM

B6: Pin1 inhibitor 7 (peptide)
peptide: XAXXXXRAAXFXRRRRXK
modifications: not fully specified; bicyclo[Tm(D-Ala-Sar-D-pThr-Pip-Nal-Arg-Ala-D-Ala)-Dap-(Phe-Nal-Arg-Arg-Arg-Arg-Dap)]-Lys-NH2
fold improvement of potency against inhibitor 6 [5]: 2 fold
IC50 (HeLa cell growth, MTT assay) [4]: 1800 nM
PML protein level in HeLa cells (western blot), at 5 µM [4]: 3.1 fold

B7: peptide 4 (Table 18) (peptide)
peptide: Trimesoyl-[dF][Phe(4-F)][dT][Pip][2Nal]RA[dA][Dap]F[2Nal]RRRR[Dap]K
modifications: linker (positions not given here) via Trimesoyl; not fully specified (C-terminus, bridges); printed as bicyclo[Tm-(D-Phe-Fpa-D-Thr-Pip-Nal-Arg-Ala-D-Ala)-Dap-(Phe-Nal-Arg-Arg-Arg-Arg-Dap)]-Lys
Kd [2]: 1000 nM

B8: peptide 7 (Table 18) (peptide)
peptide: XXIEXXRAAXFXRRRRXK
modifications: not fully specified; bicyclo[Tm-(Mpa-Ile-D-Glu-Pip-Nal-Arg-Ala-D-Ala)-Dap-(Phe-Nal-Arg-Arg-Arg-Arg-Dap)]-Lys
Kd [2]: 1000 nM
FA increase relative to the no-protein control [3]: > 50%
